Variants at the floor of the assay were thinned out.
B1: TPR 5TU (parent)
chain: GGAUCUUCUCGAUCUAACAAAAAAGACAAAUCUGCCACAAAGCUUGAGAGCAUCUUCGGAUGCAGAGGCGGCAGCCUUCGGUGGCGCGAUAGCGCCAACGUUCUCAACUAUGACACGCAAAACGCGUGCUCCGUUGAAUGGAGUUUAUCAUG

Variants of: B1
Assay: polymerase ribozyme fitness, log enrichment relative to wild type (log ratio); higher = more active; in vitro selection for triplet polymerase activity
Method in brief: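 Mutant libraries for each subunit of a heterodimeric triplet polymerase ribozyme were made by PCR and then transcribed. Each library underwent one round of in vitro selection in triplicate: annealing with a biotinylated primer, the partner subunit and triplets, frozen incubation at −7 °C, gel excision of extended constructs, streptavidin-bead capture and RT-PCR. Input and output libraries were Illumina-sequenced, and only genotypes with ≥10 input reads and ≥1 read per output were kept. Fitness is the logarithm, base 2, of genotype enrichment over wild-type enrichment, computed from inverse-variance-weighted replicate averages.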

Variant	polymerase ribozyme fitness (log ratio)
GGAUCUUCUCGAUCUAACAAAAAAGACAAAUCUGCCACAAAGCUUGAGAGCAUCUUCGGAUUCAGAGGCGGCAGCCUUCGGUGGCGCGAUAGCGCCAACGUUCUCCACUAUGACACGCAAAACGCGUGCUCCGUUGAAUGGAGUUGAUUAUG	-3.91
GGAUCUUCUCGAUCUAACAAAAAAGACAAAUCUGCCACAAAGCUUGAGAGCAUCUUCGGAUCCAGAGGCGGCAGCCUUCGGUGGCGCGAUAGCGCCAACGUUCUCAACUAUGACACGCAAAACGCGUGCUCCGUUGAAUGGAUUUUAUCAUG	-3.58
GGAUCUUCUCGAUCUAACAAAAAAGACAAAUCUGCCACAAAGCUUGAGAGCAUCUUCGGAUCCAGAGGCGGUAGCCUUCGGUGGCGCGAUAGUGCCAACGUUCUCAACUAUGACACGCAAAACGCGUGCUCCAUUGAAUGUAGUUUAUCAUG	≤ -4.2
GGAUCUUCUCGAUCUAACAAAAAAGACAAAUCUGCCACAAAGCUUGAGAGCAUCUUCGGAUCCAGAGGCGGCAGCCUUUGGUGGCGCGAUAGCGCCAACGUUCUCAACUAUGACACGCAAAACGCGUGCUCCGUUGAAUGUAGUUUAUCAUG	≤ -4.2
GGAUCUUCUCGAUCUAACAAAAAAGACAAAUCUGCCACAAAGCUUGAGAGCAUCUUCGGAUCCAGAGGCGGCAGCCUUCGGUGGCGCGAUAGCGCCAACGUUCUCAACUAUGACACGCAAAACGCGUGCUCCGUUGAAUGCAGUUUAUCAUG	-0.741
GGAUCUUCUCGAUCUAACAAAAAAGACAAAUCUGCCACAAAGCUUGAGAGCAUCUUCGGAUUCAGAGGCGGCAGCCUUCGGUGGCGCGAUAGCACCAACGUUCUCAACUAUGACACGCAAAACGCGUGCUCCGUUGAAUGGAGUUUAUCAUG	-1.25
GGAUCUUCUCGAUCUAACAAAAAAGACAAAUCUGCCACAAAGCUUGAGAGCAUCUUCGGAUCCAGAGGCGGAAGCCUUCGGUGGCGCGAUGGCGCCAGCGUUCUCAACUAUGACACGCAAAAUGCGUGCUCCGUUGAAUGGAGUUUAUCAUG	≤ -4.2
GGAUCUUCUCGAUCUAACAAAAAAGACAAAUCUGCCACAAAGCUUGAGAGCAUCUUCGGAUCCAGAGGCGGCAGCCUUCGGUGGCGCGAUAGCACCAACGUUCUCAACUAUGACACGCAAAACGCGUGCUCCCUUGAAUGUAGUUUAUCAUG	-3.95
GGAUCUUCUCGAUCUAACAAAAAAGACAAAUCUGCCACAAAGCUUGAGAGCAUCUUCGGAUUCAGAGGCGGCAGCCUUCGGUGGCGCGAUAGCGCCAACGUUCUCAACCAUGACAUGCAAAACGCGUGCUUCGUUGAAUGGAGUUUUUCAUG	-1.94
GGAUCUUCUCGAUCUAACAAAAAAGACAAAUCUGCCACAAAGCUUGAGAGCAUCUUCGGAUCCAGAGGCGGCAGCCUUCGGUGACGCGAUAGCGCCAACGUUCUCAACUAUGACACGCAAAACGGGUACUCCGUUGAAUGGAGUUUAUCAUG	≤ -4.2
GGAUCUUCUCGAUCUAACAAAAAAGACAAAUCUGCCACAAAGCUUGAGAGCAUCUUCGGAUCCAGAGGCGGCAGCCUUCGAUGGCGCGAUUGCGCCAACGUUCUCAACUAUGUCACGCAAAACGUGUGCUCCGUUGAAUGGAGUUUAUCAUG	≤ -4.2
GGAUCUUCUCGAUCUAACAAAAAAGACAAAUCUGCCACAAAGCUUGAGAGCAUCUUCGGAUCCAGAGGCGGCAGCUUUCGGUGGCGCGAUAGCGCCAACGUUCUCAACUAUGACACGCAAAACGCGUGCUCCGUUGAAGGGAGUUUAUCAUG	-3.09
GGAUCUUCUCGAUCUAACAAAAAAGACAAAUCUGCCACAAAGCUUGAGAGCAUCUUCGGAUCCAGAGGCGGCAGCCUUCGGUGGCGCGAUACCGCCAACGUUCUCAACUAUGACACGCAAAACGCGUGCUCCGUUGAAUGGAGUUUAUCAUG	-3.09
GGAUCUUCUCGAUCUAACAAAAAAGACAAAUCUGCCACAAAGCUUGAGAGCAUCUUCGGAUUCAGAGGCGGUAGCCUUCGGUGGCGCGAUAGUGCCAACGUUCUCAACUAUGACACGCAAAGCGCGUGCUCCGUUGAAUGGAGUUUAUCAUG	-3.31
GGAUCUUCUCGAUCUAACAAAAAAGACAAAUCUGCCACAAAGCUUGAGAGCAUCUUCGGAUUCAGAGGCGGCAGCCUUCGGUGGCGCGAUAGCGCCAACGUUCUCAACUAUGACAUGCAAAACGCGUGCUCCGUUGAAUGGAGUUUAUCAUG	0.138
GGAUCUUCUCGAUCUAACAAAAAAGACAAAUCUGCCACAAAGCUUGAGAGCAUCUUCGGAUUCAGAGGCGGCAGCCUUCGGUGGCGCGAUAGCGCCAACGUUCUCAACUAUGACACGCAAAACGCGUGCUCCGUUAAAUGGAGUUUAUCAUG	0.626
GGAUCUUCUCGAUCUAACAAAAAAGACAAAUCUGCCACAAAGCUUGAGAGCAUCUUCGGAUCCAGAGGCGGUAGCCUUCGGUGGUGCGAUAGCGCCAACGUUCUCAAUUAUGACACGCAAAACGCGUGCUCCGUUGAAUGGAGUUUAUCAUG	≤ -4.2
GGAUCUUCUCGAUCUAACAAAAAAGACAAAUCUGCCACAAAGCUUGAGAGCAUCUUCGGAUUCAGAGGCGGCAGCCUUCGGUGGCGCGAUAGCGACAACGUUCUCAACUAUGACACGCAAAACGCGUGCUCCGUUGAAUGGAGUUUAUCAUG	-1.1
GGAUCUUCUCGAUCUAACAAAAAAGACAAAUCUGCCACAAAGCUUGAGAGCAUCUUCGGAUUUAGAGACGGCAGCCUUCGGUGGCGCGAUAGCGACAACGUUAUCAACUAUGACACGCAAAACGCGUGCUCCGUUGAAUGGAGUUUAUCAUG	≤ -4.2
